Consider nine molecules from patent publication US20120165503A1 (Merck Sharp & Dohme, published 2012).

Assay [1] concerns the target T1, human GLP-1 receptor (human, UniProt P43220 24-463).
T1 construct: whole, on cells; also called hGLP-1R
Put plainly: receptor binding affinity (GLP-1R IC50); assay format not described.

Assay [2] concerns the target T2, glucagon receptor of wild-type mice (liver, in vivo) (mouse, UniProt Q61606 27-485).
T2 construct: whole, on cells; Receptor occupancy measured in vivo in liver; also called GCGR; GGCR
Put plainly: in vivo competition with 125I-glucagon, liver of wild-type mice, s.c. dosing.

The target of assay [3] is T3, human glucagon receptor (human, UniProt P47871 26-477). Put plainly: cell-based or functional assay.
T3 sequence (P47871 26-477): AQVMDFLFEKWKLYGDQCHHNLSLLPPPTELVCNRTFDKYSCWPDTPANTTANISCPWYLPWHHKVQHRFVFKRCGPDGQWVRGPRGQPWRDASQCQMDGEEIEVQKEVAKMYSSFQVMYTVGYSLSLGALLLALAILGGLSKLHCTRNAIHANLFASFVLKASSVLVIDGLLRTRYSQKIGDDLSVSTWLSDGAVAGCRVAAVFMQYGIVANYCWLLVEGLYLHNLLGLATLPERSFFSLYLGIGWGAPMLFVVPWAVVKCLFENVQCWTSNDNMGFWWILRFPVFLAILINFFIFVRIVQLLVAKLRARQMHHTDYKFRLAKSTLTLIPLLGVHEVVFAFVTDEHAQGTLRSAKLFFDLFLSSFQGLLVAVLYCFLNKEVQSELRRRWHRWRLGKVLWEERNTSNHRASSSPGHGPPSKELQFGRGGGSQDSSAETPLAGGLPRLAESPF
For assay [4], the target named is T1, human GLP-1 receptor. Put plainly: cell-based or functional assay.
The target of assay [5] is T3, human glucagon receptor. Put plainly: cell-based or functional assay. The source holds these as a separate data set.
Assay [6] concerns the target T1, human GLP-1 receptor. Put plainly: cell-based or functional assay. The source holds these as a separate data set.
The target in assay [7] is T3, human glucagon receptor. Put plainly: cell-based or functional assay. This is another data set of the same source.
The target of assay [8] is T1, human GLP-1 receptor. Put plainly: cell-based or functional assay. This is another data set of the same source.
Assay [9] has as its target T3, human glucagon receptor. Put plainly: cell-based or functional assay. This is another data set of the same source.
For assay [10], the target named is T1, human GLP-1 receptor. Put plainly: cell-based or functional assay. The source holds these as a separate data set.
Assay [11] deals with T2, glucagon receptor of wild-type mice …. Put plainly: in vivo GCGR receptor occupancy, competition assay in wild-type mice, 3 mpk s.c.

Positions count from the first letter of the chain named. Names and notes keep the numbering of the source. Where two headings read alike, the source gives them in different places. *1 amine or outer side, *2 acyl side, *3 side chain or, on linkers, in order; H or OH if unused. Where no end group is shown, it is not given here. Side-chain parts run from the residue outwards. [ ]: non-standard residue; d: D form. The star is where a group is joined. O‑methyl‑L‑homoserine = COCC[C@H](N[*:1])C(=O)[*:2]; γGlu = O=C(O)[C@H](CCC(=O)[*:2])N[*:1]; Palmitoyl = CCCCCCCCCCCCCCCC(=O)*; Nle = CCCC[C@H](N)C(=O)O; Aib = CC(C)(N)C(=O)O

T2 sequence (Q61606 27-485): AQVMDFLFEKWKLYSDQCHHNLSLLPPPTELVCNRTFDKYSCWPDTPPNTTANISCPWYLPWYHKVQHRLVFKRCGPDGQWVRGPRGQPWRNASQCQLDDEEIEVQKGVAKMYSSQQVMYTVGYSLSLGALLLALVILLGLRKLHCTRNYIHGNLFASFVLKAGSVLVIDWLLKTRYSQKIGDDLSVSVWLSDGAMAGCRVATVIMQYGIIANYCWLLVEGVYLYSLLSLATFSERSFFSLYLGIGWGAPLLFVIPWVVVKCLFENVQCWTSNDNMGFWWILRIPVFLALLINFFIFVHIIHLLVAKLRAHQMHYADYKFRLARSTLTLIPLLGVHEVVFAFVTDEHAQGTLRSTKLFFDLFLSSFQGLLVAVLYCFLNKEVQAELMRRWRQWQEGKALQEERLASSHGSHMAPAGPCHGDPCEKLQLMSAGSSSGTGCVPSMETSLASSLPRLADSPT

B1: OXM-Q3E (peptide)
peptide: HSEGTFTSDYSKYLDSRRAQDFVQWLMNTKRNRNNIA
notes: Native OXM with Glu instead of Gln at position 3; the entry already carries the change; also called OXM8 (Q3E); GLP-1 mimetic
For orientation: IC50 means the midpoint of a concentration-inhibition curve. The molecule B1 displayed an IC50 in assay [1] of 237 nM. Besides, in assay [2], the binding result is “no binding”. Also, in [3], the “% Activation of GCGR” value was determined as 17% and the “GCGR EC50” value is 1640 nM. In assay [4], the “GLP-1R EC50” value came to 12.4 nM.

B2: OXM-Q3D (peptide)
peptide: B1 peptide with E3D
Take B2: in assay [3], the “% Activation of GCGR” value came out at 1% and the “GCGR EC50” value amounted to 3400 nM. Moreover, the “GLP-1R EC50” value in [4] is 2.3 nM.

B3: OXM418 (peptide)
peptide: H[dS]QGTFTSDK([γGlu-γGlu-Palmitoyl])SKYLD[Aib]RRAQDFVQWLMNTK[γGlu]-NH2
modifications: N-terminus assumed
SMILES: CCCCCCCCCCCCCCCC(=O)N[C@@H](CCC(=O)N[C@@H](CCC(=O)NCCCC[C@H](NC(=O)[C@H](CC(=O)O)NC(=O)[C@H](CO)NC(=O)[C@@H](NC(=O)[C@H](Cc1ccccc1)NC(=O)[C@@H](NC(=O)CNC(=O)[C@H](CCC(N)=O)NC(=O)[C@@H](CO)NC(=O)[C@@H](N)Cc1c[nH]cn1)[C@@H](C)O)[C@@H](C)O)C(=O)N[C@@H](CO)C(=O)N[C@@H](CCCCN)C(=O)N[C@@H](Cc1ccc(O)cc1)C(=O)N[C@@H](CC(C)C)C(=O)N[C@@H](CC(=O)O)C(=O)NC(C)(C)C(=O)N[C@@H](CCCNC(=N)N)C(=O)N[C@@H](CCCNC(=N)N)C(=O)N[C@@H](C)C(=O)N[C@@H](CCC(N)=O)C(=O)N[C@@H](CC(=O)O)C(=O)N[C@@H](Cc1ccccc1)C(=O)N[C@H](C(=O)N[C@@H](CCC(N)=O)C(=O)N[C@@H](Cc1c[nH]c2ccccc12)C(=O)N[C@@H](CC(C)C)C(=O)N[C@@H](CCSC)C(=O)N[C@@H](CC(N)=O)C(=O)N[C@H](C(=O)N[C@@H](CCCCN)C(=O)N[C@@H](CCC(N)=O)C(=O)O)[C@@H](C)O)C(C)C)C(=O)O)C(=O)O
For B3, the “hGCGR + 20% plasma EC50” value in [5] came out at 0.3 nM. Besides, in [6], the “hGLP-1R + 20% Plasma EC50” value came to 0.3 nM. Also, the “hGCGR EC50” value in assay [7] was found to be 0.002 nM. Besides, the “hGLP-1R EC50” value in [8] is 0.026 nM.

B4: OXM212 (peptide)
peptide: H[Aib]QGTFTSDYSKYLDSRRAQDFVQWL[Nle]NTKRNRNNIAC(cholesterol)-NH2
As for B4, in assay [9], the “% Activation of GCGR” value is 115%, the “GCGR + 10% plasma” value was 1030 nM, the “GCGR + 10% plasma (fold shift)” value was determined as 92 fold and the “GCGR EC50” value was 11.3 nM. The “GLP-1R EC50” value in assay [10] came out at 0.6 nM.

B5: OXM70 (peptide)
peptide: HXQGTFTSDYSKYLDSRRAQDFVQWLMNTKRNRNNIAC
modifications: Aib at position 2; C4 = Cys(cholest-5-en-3-yl{[(2R)-3-amino-2-(amino)-3-oxopropyl]thio}acetate) at position 38; C-terminal amide
Consider B5, for which the “% RO @ 3 mpk s.c.” value in assay [11] was about 0%. In addition, in [9], the “GCGR + 10% plasma” value stood at 169 nM and the “GCGR EC50” value amounted to 2.4 nM. Moreover, in [10], the “GLP-1R EC50” value was determined as 0.15 nM.

B6: OXM216 (peptide)
peptide: B5 peptide
modifications: Aib at position 2; C7 = Cys(Oxa4-cholesterol) at position 38; C-terminal amide
Consider B6, for which, in assay [11], the “% RO @ 3 mpk s.c.” value was 10%. Moreover, in assay [9], the “% Activation of GCGR” value was determined as 93%, the “GCGR + 10% plasma” value was determined as 12 nM and the “GCGR EC50” value came out at 0.63 nM. The “GLP-1R EC50” value in assay [10] worked out at 3.1 nM.

B7: OXM115 (peptide)
peptide: B5 peptide with X2S
modifications: D-Ser at position 2; C7 = Cys(Oxa4-cholesterol) at position 38; C-terminal amide
Consider B7, for which the “% RO @ 3 mpk s.c.” value in assay [11] is 36%. Besides, in assay [9], the “% Activation of GCGR” value came out at 100%, the “GCGR + 10% plasma” value is 0.64 nM and the “GCGR EC50” value turned out to be 0.33 nM. The “GLP-1R EC50” value in [10] was 0.08 nM.

B8: OXM177 (peptide)
peptide: B5 peptide with C38K
modifications: Aib at position 2; K(palmitoyl) at position 38; C-terminal amide
Regarding B8, the “% RO @ 3 mpk s.c.” value in assay [11] is 30%. In assay [9], the “% Activation of GCGR” value is 93%, the “GCGR + 10% plasma” value amounted to 3 nM, the “GCGR + 10% plasma (fold shift)” value is 5 fold and the “GCGR EC50” value is 0.59 nM. Further, the “GLP-1R EC50” value in assay [10] was 0.1 nM.

B9: OXM213 (peptide)
peptide: H[Aib]QGTFTSDYSKYLDSRRAQDFVQWL[O‑methyl‑L‑homoserine]NTKRNRNNIAC(cholesterol)-NH2
For the molecule B9, in assay [9], the “GCGR + 10% plasma” value came out at 1210 nM and the “GCGR EC50” value amounted to 27.6 nM. Also, the “GLP-1R EC50” value in assay [10] was found to be 0.3 nM.
